Results: patent publication US20120276611A1 (GRIFOLS THERAPEUTICS, published 2012)

T1: α2-antiplasmin (UniProt P08697 40-491, limits assumed)
T1 construct: also called α2-AP
T1 sequence (looked up): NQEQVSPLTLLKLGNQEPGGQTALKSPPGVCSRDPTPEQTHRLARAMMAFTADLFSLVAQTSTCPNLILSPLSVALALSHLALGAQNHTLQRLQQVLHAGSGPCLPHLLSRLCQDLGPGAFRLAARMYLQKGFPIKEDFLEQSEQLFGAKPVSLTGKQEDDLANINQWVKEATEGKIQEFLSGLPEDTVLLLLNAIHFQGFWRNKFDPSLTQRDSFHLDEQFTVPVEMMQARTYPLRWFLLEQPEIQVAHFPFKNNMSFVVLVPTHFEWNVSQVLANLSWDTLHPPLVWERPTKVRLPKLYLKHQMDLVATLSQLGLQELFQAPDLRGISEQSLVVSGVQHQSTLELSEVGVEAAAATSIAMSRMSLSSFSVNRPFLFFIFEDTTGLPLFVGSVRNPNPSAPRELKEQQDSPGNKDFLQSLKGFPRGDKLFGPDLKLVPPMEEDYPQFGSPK


Experiments:
[1] = biological target: T1, α2-antiplasmin; assay: enzyme mixed with α2-antiplasmin, residual S-2251 activity at time points (Wiman and Collen); 22° C., PBS pH 7.4
Experimental: TABLE 3 Inhibition rates for various plasmin species and inhibitors were determined at 22° C. in PBS buffer, pH 7.4.

[2] = biological target: T1, α2-antiplasmin; assay: inhibition rates by α2-antiplasmin compared (residual S-2251 activity)

Row | inhibition rate (second-order rate constant) [1] | fold faster inhibition than micro-plasmin or mini-plasmin [2] | Binder
1 | 240000 M⁻¹ s⁻¹ | – | mini-plasmin (enzyme, also called mini-plasmin (K5-SP)) VAPPPVVLLPDVETPSEEDCMFGNGKGYRGKRATTVTGTPCQDWAAQEPHRHSIFTPETNPRAGLEKNYCRNPDGDVGGPWCYTTNPRKLYDYCDVPQCAAPSFDCGKPQVEPKKCPGRVVGGCVAHPHSWPWQVSLRTRFGMHFCGGTLISPEWVLTAAHCLEKSPRPSSYKVILGAHQEVNLEPHVQEIEVSRLFLEPTRKDIALLKLSSPAVITDKVIPACLPSPNYVVADRTECFITGWGETQGTFGAGLLKEAQLPVIENKVCNRYEFLNGRVQSTELCAGHLAGGTDSCQGDSGGPLVCFEKDKYILQGVTSWGLGCARPNKPGVYVRVSRFVTWIEGVMRNN
2 | 1.8e+07 M⁻¹ s⁻¹ | 40 fold | (TAL6003)-plasmin (enzyme, also called recombinant (TAL6003)-plasmin) MRDVVLFEKKVYLSECKTGNGKNYRGTMSKTKNGITCQKWSSTSPHRPRFSPATHPSEGLEENYCRNPDNDPQGPWCYTTDPEKRYDYCDVPQCAAPSFDCGKPQVEPKKCPGRVVGGCVAHPHSWPWQVSLRTRFGMHFCGGTLISPEWVLTAAHCLEKSPRPSSYKVILGAHQEVNLEPHVQEIEVSRLFLEPTRKDIALLKLSSPAVITDKVIPACLPSPNYVVADRTECFITGWGETQGTFGAGLLKEAQLPVIENKVCNRYEFLNGRVQSTELCAGHLAGGTDSCQGDSGGPLVCFEKDKYILQGVTSWGLGCARPNKPGVYVRVSRFVTWIEGVMRNN
3 | 180000 M⁻¹ s⁻¹ | – | micro-plasmin (enzyme, UniProt P00747 562-810, looked up, domain: serine protease domain; also called micro-plasmin (lacking all five kringles)) APSFDCGKPQVEPKKCPGRVVGGCVAHPHSWPWQVSLRTRFGMHFCGGTLISPEWVLTAAHCLEKSPRPSSYKVILGAHQEVNLEPHVQEIEVSRLFLEPTRKDIALLKLSSPAVITDKVIPACLPSPNYVVADRTECFITGWGETQGTFGAGLLKEAQLPVIENKVCNRYEFLNGRVQSTELCAGHLAGGTDSCQGDSGGPLVCFEKDKYILQGVTSWGLGCARPNKPGVYVRVSRFVTWIEGVMRNN
